In patent US20020193571A1 (published 2002):

T1: human WSX receptor (hWSXR), antigen of the phage antigen-binding ELISA (human, UniProt P48357 22-841)
T1 construct: both panning antigens hold the ECD; also called huWSXR
T1 sequence: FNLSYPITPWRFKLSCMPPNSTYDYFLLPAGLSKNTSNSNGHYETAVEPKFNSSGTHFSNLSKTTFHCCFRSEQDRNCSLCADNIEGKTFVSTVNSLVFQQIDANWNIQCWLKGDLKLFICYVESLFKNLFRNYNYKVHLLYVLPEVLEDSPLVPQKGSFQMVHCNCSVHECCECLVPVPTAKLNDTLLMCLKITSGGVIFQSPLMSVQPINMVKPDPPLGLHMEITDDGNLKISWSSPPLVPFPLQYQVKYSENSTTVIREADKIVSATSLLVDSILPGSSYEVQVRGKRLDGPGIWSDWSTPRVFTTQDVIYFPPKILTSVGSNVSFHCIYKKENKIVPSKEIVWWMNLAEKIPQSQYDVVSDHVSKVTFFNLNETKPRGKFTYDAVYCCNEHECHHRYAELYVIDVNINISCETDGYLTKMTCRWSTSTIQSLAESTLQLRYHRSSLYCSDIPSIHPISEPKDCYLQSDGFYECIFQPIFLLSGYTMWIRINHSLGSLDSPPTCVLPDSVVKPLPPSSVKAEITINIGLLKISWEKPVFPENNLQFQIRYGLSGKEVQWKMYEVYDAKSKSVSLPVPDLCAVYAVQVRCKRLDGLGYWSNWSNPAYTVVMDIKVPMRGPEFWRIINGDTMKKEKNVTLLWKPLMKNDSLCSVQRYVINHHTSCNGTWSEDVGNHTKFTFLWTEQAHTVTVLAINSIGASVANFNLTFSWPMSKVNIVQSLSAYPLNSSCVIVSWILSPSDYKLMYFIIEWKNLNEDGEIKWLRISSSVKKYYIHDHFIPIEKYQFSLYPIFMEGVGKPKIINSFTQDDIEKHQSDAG


Biological target: T1, human WSX receptor (hWSXR), antigen of …
Test: phage antigen-binding ELISA

| Binder | binding result |
| --- | --- |
| agonist antibody clone #3 scFv (scFv, Human scFv from a phage library) scFv: EVQLVQSGAEVKKPGASVKVSCKASGYTFTGYYMYWVRQAPGQGLEWMGWINPNSGGTNYAQKFQGRVTMTRDTSIGTAYMELSRLSSDDTAVYYCARDRYYGSSAYHRGSYYMDVWGRGTLVTVSSGGGGTGGGGSGGGGSSELTQDPAVSVALGQTVRITCQGDSLRSYYASWYQQKPGQAPVLVIYGKNNRPSGIPDRFSGSSSGNTASLTITGAQAEDEADYYCNSRDSSGNHVVFGGGTKLTVL | binds |
| agonist antibody clone #17 scFv (scFv, Human scFv from a phage library; tested as scFv phage and as soluble scFv) scFv: QVRLQQSGGGLVQPGRSLRLSCAASGFTFDDYAMHWVRQAPGKGLEWVSGMTWNSGSIGYADSVKGRFTISRDNAKNSLYLQMNSLRAEDTAVYYCAREPHNTDAFDIWGRGTLVTVSSGGGGPGGGGSGGGGSDVVMTQSPSFLSAFVGDTITITCRASQGIYNYLAWYQQKPGKAPKLLIYAASTLQSGVPSRFSGSGSGTEFTLTISSLQPEDFGTYYCQQLISYPLTFGGGTKVEIK | binds |
